Reference: patent publication US20070254830A1 (UNIVERSITY OF TOKYO, published 2007)

Molecular target: T1, Myc/His-tagged C20orf20 (Homo sapiens (Human), UniProt Q9NV56 1-204)
T1 construct: Expressed in transfected COS7, SW480, HEK293 or HEK293F cells from pcDNA3.1Myc/His-C20orf20; also called myc-tagged C20orf20; pcDNA3.1Myc/His-C20orf20; not shown: Myc/His tag from the pcDNA3.1Myc/His vector
Test: reciprocal co-immunoprecipitation (anti-HA IP / anti-myc blot and anti-myc IP / anti-HA blot) from co-transfected COS7 cells
Protocol: The entire coding region of p120 was amplified by RT-PCR and cloned into pCAGGS-HA vector. The primer sequences used for the amplification were 5′-[…]-3′ (SEQ ID NO.5) and 5′-[…]-3′ (SEQ ID NO.6). We transfected COS7 cells with pcDNA3.1Myc/His-C20orf20, pCAGGS-HA-p120 or their combination, and performed immunoprecipitation assay using anti-Myc or anti-HA antibody. Cells were washed with PBS and lysed in TNE buffer containing 150 mM NaCl, 0.5% NP40, 10 mM Tris-HCl (pH7.8), supplemented with a Protease Inhibitor Cocktail 3 (Roche). In a typical immunoprecipitation reaction, 400 μg of whole-cell extract was incubated with 1 μg of anti-Myc (Santa Cruz) or anti-HA antibody (Roche), and 20 μl of protein G Sepharose beads (Zymed) at 4° C. for 2 hr. Beads were washed four times in 1 ml of TNE buffer and proteins bound to the beads were eluted by boiling in Laemmli sample buffer. The precipitated protein was separated by SDS-PAGE and immunoblot analysis was carried out using with either rat anti-HA antibody or mouse anti-Myc antibody, respectively.

T1 sequence (Q9NV56 whole entry): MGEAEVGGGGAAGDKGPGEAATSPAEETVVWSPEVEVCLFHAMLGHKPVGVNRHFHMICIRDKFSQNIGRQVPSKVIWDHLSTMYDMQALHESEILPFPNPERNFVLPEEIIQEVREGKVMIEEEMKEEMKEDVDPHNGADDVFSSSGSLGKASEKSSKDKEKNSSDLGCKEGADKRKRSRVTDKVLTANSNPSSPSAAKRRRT

binding result: binds
B1: HA-tagged p120 (other)
chain: MRSGDQNWVSVSRAIKPFAEPGRPPDWFSQKHCASQYSELLETTETPKRKRGEKGEVVETVEDVIVRKLTAERVEELKKVIKETQERYRRLKRDAELIQAGHMDSRLDELCNDIATKKKLEEEEAEVKRKATDAAYQARQAVKTPPRRLPTVMVRSPIDSASPGGDYPLGDLTPTTMEEATSGVTPGTLPSTPVTSFPGIPDTLPPGSAPLEAPMTPVTDDSPQKKMLGQKATPPPSPLLSELLKKGSLLPTSPRLVNESEMAVASGHLNSTGVLLEVGGVLPMIHGGEIQQTPNTVAASPAASGAPTLSRLLEAGPTQFTTPLASFTTVASEPPVKLVPPPVESVSHATIVMMPALPAPSSAPAVSTTESVAPVSQPDNCVPMEAVGDPHTVTVSMDSSEISMIINSIKEECFRSGVAEAPVGSKAPSIDGKEELDLAEKMDIAVSYTGEELDFETVGDIIAIIEDKVDDHPEVLDVAAVEAALSFCEENDDPQSLPGPWEHPIQQERDKPVPLPAPEMTVKQERLDFEETENKGIHELVDIREPSAEIKVEPAEPEPVISGAEIVAGVVPATSMEPPELRSQDLDEELGSTAAGEIVEADVAIGKGDETPLTNVKTEASPESMLSPSHGSNPIEDPLEAETQHKFEMSDSLKEESGTIFGSQIKDAPGEDEEEDGVSEAASLEEPKEEDQGEGYLSEMDNEPPVSESDDGFSIHNATLQSHTLADSIPSSPASSQFSVCSEDQEAIQAQKIWKKAIMLVWRAAANHRYANVFLQPVTDDIAPGYHSIVQRPMDLSTIKKNIENGLIRSTAEFQRDIMLMFQNAVMYNSSDHDVYHMAVEMQRDVLEQIQQFLATQLIMQTSESGISAKSLRGRDSTRKQDASEKDSVPMGSPAFLLSLFDGGTRGRRCAIEADMKMKK
notes: expressed in transfected COS7, SW480, HEK293 or HEK293F cells; also called SMAP; not shown: HA tag from the pCAGGS-HA vector
